The results in this text go back to patent US20230203188A1 (published 2023).

The target in experiment [1] is T1, full-length cyno SIRPβ1 (XP_005568598, clone PA2), on CHO cells (cynomolgus monkey).
T1 construct: whole, on cells; also called Cynomolgus SIRPβ1 XP_005568598 Clone PA2
In words: flow cytometry on CHO cells expressing the target. Here is the method:
(§1) Antibody binding to cells expressing full-length cynomolgus SIRPβ1 (XP_005568598) and SIRPβ1v3 (XP_005568593) is evaluated by flow cytometry. SIRPβ1- or SIRPβ31V3-expressing CHO cells are blocked with donkey IgG and incubated on ice with increasing concentrations of antibodies for 60 minutes, washed and stained with AF647-conjugated donkey F(ab′)₂ anti-human IgG secondary reagent. Cells are washed, fixed, and analyzed by flow cytometry. Median fluorescent intensity is determined and used as a measure of antibody binding.

Experiment [2] addresses T2, full-length cyno SIRPβ1v3 (XP_005568593, clone 1HC6), on CHO cells (cynomolgus monkey, UniProt A0A2K5VYQ9).
T2 construct: whole, on cells; also called Cynomolgus SIRPβ1v3 XP-005568593 Clone 1HC6
T2 sequence: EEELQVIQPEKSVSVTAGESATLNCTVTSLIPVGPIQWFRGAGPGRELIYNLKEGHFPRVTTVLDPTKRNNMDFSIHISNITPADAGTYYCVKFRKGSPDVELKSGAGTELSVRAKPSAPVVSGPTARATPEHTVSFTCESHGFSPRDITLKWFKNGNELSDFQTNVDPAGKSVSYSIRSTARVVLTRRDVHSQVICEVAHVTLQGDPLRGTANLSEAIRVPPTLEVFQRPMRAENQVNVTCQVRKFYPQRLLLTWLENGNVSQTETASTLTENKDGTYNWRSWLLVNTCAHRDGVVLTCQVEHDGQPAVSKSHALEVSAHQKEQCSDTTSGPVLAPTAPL
Nature of the experiment: flow cytometry on CHO cells expressing the target. Here is the method:
as §1
On the technique in general: Flow cytometry measures light scatter and fluorescence of single cells or particles in a stream.

B1: Antibody A (antibody, human IgG1, kappa, L234A L235A)
heavy: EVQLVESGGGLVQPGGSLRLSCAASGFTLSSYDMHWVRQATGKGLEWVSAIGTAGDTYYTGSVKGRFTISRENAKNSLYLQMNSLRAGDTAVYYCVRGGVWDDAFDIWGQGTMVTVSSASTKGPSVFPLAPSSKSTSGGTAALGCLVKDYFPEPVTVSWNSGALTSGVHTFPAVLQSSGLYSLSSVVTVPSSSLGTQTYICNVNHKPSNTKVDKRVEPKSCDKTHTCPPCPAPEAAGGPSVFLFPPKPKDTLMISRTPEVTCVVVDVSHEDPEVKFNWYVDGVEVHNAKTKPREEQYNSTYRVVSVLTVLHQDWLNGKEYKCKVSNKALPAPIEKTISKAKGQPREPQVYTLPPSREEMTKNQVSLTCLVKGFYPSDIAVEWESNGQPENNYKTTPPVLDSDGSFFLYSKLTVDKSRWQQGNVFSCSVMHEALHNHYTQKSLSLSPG
light: DIQMTQSPSSLSASVGDRVTITCRASQDINNYLAWFQQKPGKAPKSLIYTASSLHSGVPSKFSGSGSGTDFTLTISSLQPEDFATYYCQQYVSYPYTFGQGTKLEIKRTVAAPSVFIFPPSDEQLKSGTASVVCLLNNFYPREAKVQWKVDNALQSGNSQESVTEQDSKDSTYSLSSTLTLSKADYEKHKVYACEVTHQGLSSPVTKSFNRGEC
notes: human IgG1 (LALA) backbone, kappa
Take B1: in experiment [1], it took 0.7 nM to reach a half-maximal effect (EC50).

B2: Antibody A10 (antibody, human IgG1, kappa, L234A L235A)
heavy: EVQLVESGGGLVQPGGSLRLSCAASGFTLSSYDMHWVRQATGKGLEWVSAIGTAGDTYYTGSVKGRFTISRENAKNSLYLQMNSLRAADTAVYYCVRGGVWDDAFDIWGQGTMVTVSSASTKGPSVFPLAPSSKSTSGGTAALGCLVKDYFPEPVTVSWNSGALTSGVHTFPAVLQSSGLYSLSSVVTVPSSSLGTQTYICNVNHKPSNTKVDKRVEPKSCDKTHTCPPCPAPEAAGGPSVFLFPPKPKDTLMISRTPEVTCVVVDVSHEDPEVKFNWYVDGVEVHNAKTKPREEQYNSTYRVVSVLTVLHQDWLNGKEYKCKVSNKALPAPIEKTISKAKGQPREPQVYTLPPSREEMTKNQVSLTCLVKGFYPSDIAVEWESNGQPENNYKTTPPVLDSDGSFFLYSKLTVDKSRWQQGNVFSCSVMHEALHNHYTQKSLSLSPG
light: DIQMTQSPSSLSASVGDRVTITCRASQDINNYLAWFQQKPGKAPKSLIYTASSLHSGVPSKFSGSGSGTDFTLTISSLQPEDFATYYCQQYVSYPYTFGQGTKLEIKRTVAAPSVFIFPPSDEQLKSGTASVVCLLNNFYPREAKVQWKVDNALQSGNSQESVTEQDSKDSTYSLSSTLTLSKADYEKHKVYACEVTHQGLSSPVTKSFNRGEC
notes: engineered variant of Antibody A; IgG1 (LALA)
For the molecule B2, the EC50 (commonly the concentration giving half of the maximal effect) in experiment [1] turned out to be 0.6 nM.

B3: KWAR23 (antibody, V domains shown)
VH: EVQLQQSGAELVKPGASVKLSCTASGFNIKDYYIHWVQQRTEQGLEWIGRIDPEDGETKYAPKFQDKATITADTSSNTAYLHLSSLTSEDTAVYYCARWGAYWGQGTLVTVSS
VL: QIVLTQSPAIMSASPGEKVTLTCSASSSVSSSYLYWYQQKPGSSPKLWIYSTSNLASGVPARFSGSGSGTSYSLTISSMEAEDAASYFCHQWSSYPRTFGAGTKLELK
As to B3, the EC50 in experiment [2] turned out to be 0.4 nM.
